This note sets out measurements from patent US20200317768A1 (published 2020).

What all share (assay): SPR (Biacore); KD of SG1 / KD of variant;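 note: relative to parent M103205H795-SG1 carrying the SG1 human heavy chain constant region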
On the technique in general: SPR reads the build-up and loss of mass on a sensor chip optically.

For test [1], the target named is T1, cynomolgus monkey FcγRIIa2 extracellular domain, C-terminal His-tag (cynomolgus monkey).
T1 construct: also called cyno FcγRIIa2; cynoFcgRIIa2
T1 chain: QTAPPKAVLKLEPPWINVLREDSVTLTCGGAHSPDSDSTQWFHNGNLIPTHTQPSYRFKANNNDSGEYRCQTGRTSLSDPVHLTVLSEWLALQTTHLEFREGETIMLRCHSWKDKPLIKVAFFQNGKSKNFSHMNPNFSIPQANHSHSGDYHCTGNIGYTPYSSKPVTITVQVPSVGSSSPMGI

For test [2], the target named is T2, cynomolgus monkey FcγRIIIaS extracellular domain, C-terminal His-tag (cynomolgus monkey, UniProt Q8SPW2 21-206 at identity 1.00)).
T2 construct: also called cyno FcγRIIIaS; cynoFcγRIIIaS
T2 chain: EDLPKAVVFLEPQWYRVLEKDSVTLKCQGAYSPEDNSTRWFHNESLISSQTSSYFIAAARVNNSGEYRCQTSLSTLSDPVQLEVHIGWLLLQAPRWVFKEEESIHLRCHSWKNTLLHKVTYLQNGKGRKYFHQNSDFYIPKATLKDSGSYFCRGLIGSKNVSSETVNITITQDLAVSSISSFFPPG

Test [3] deals with T3, cynomolgus monkey FcγRIIa3 extracellular domain, C-terminal His-tag (cynomolgus monkey).
T3 construct: also called cyno FcγRIIa3; cynoFcgRIIa3
T3 chain: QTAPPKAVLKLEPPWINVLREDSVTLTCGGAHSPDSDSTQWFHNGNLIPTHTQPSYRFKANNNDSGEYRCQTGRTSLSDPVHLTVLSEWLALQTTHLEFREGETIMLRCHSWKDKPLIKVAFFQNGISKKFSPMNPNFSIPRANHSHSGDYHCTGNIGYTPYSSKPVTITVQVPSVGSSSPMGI

In test [4] the target is T4, cynomolgus monkey FcγRIIb extracellular domain, C-terminal His-tag (cynomolgus monkey).
T4 construct: also called cyno FcγRIIb; cynoFcγRIIb
T4 chain: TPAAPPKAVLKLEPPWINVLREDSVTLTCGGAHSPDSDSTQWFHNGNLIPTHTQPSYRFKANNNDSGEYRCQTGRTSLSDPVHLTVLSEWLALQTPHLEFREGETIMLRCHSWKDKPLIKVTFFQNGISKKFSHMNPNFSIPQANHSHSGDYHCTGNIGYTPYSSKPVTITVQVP

The target in test [5] is T5, human FcγRIIIaV extracellular domain, C-terminal His-tag (human, UniProt P08637 17-208).
T5 construct: also called human FcgRIIIaV; FcgRIIIaV
T5 sequence (P08637 17-208 F176V): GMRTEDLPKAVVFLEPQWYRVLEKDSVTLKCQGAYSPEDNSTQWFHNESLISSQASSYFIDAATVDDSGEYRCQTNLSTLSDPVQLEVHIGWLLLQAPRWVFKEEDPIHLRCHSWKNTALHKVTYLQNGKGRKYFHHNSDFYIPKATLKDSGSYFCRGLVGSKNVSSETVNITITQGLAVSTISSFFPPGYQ

The target in test [6] is T6, human FcγRIIb extracellular domain, C-terminal His-tag (human, UniProt P31994 43-217).
T6 construct: also called human FcgRIIb; FcgRIIb
T6 sequence: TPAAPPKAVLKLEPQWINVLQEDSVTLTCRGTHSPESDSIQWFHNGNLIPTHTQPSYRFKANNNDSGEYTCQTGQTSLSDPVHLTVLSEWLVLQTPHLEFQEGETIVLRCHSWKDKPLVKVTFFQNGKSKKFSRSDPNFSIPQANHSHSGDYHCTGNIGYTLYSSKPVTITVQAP

The target in test [7] is T7, human FcγRIIaH extracellular domain, C-terminal His-tag (human, UniProt P12318 34-217).
T7 construct: also called human FcγRIIa (type H); FcgRIIaH
T7 sequence: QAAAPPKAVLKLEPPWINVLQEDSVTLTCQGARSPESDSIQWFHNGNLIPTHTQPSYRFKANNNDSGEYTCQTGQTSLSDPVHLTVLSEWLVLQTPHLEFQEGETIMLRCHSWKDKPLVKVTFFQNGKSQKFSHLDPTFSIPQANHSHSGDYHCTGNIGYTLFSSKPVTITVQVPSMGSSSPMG

Test [8] has as its target T8, human FcγRIIaR extracellular domain, C-terminal His-tag (human, UniProt P12318 34-217).
T8 construct: also called human FcγRIIa (type R); FcgRIIaR
T8 chain: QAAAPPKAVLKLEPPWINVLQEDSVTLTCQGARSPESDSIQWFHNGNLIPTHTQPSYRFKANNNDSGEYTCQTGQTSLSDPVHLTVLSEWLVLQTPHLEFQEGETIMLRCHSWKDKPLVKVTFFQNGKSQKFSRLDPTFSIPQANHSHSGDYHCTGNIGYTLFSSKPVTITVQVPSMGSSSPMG

B1: M103205H795-MY105/M103202L889-SK1 (antibody, human IgG1, kappa)
heavy: QVTLKESGPVLVKPTETLTLTCTVSGIDLSHDDISWVRQAPGKGLEWVGIISYAGSTYYASWAKGRLTISKDTSKNQVVLTMTNMDPVDTATYYCARGVPAYSHGGDLWGQGTLVTVSSASTKGPSVFPLAPSSKSTSGGTAALGCLVKDYFPEPVTVSWNSGALTSGVHTFPAVLQSSGLYSLSSVVTVPSSSLGTQTYICNVNHKPSNTKVDKKVEPKSCDKTHTCPPCPAPELLNGPVVFLFPPKPKDTLMISRTPEVTCVVVDVSEEDPEVKFNWYVDGVEVHNAKTKPREEQYNSTYRVVSVLTVLHQDWLNGKEYKCKVSNKALPAPIEKTISKAKGQPREPQVYTLPPSREEMTKNQVSLTCLVKGFYPSDIAVEWESNGQPENNYKTTPMVLDSDGSFFLYSKLTVDKSRWQQGNVFSCSVMHEALHNHYTQKSLSLSP
light: DIVMTQSPATLSLSPGERATLSCTSSQSVYHANWLSWFQQKPGQPPKLLIYWASTLAYGVPSRFSGSGSGTDFTLTISSLQPEDAATYYCAGGYGGGRYAFGQGTKVEIKRTVAAPSVFIFPPSDEQLKSGTASVVCLLNNFYPREAKVQWKVDNALQSGNSQESVTEQDSKDSTYSLSSTLTLSKADYEKHKVYACEVTHQGLSSPVTKSFNRGEC
notes: Substitutions introduced into M103205H795-SG1; expressed with M103202L889-SK1 as light chain
As to B1, the “KD fold (SG1 = 1)” value in test [1] came to 5.7 fold; in test [2] it was 0.28 fold; in test [3], 13.1 fold; in test [4], 4.6 fold; in test [5], 0.14 fold; in test [6] it was 8.1 fold. For the same molecule, the “KD fold (SG1 = 1)” value in test [7] was 0.5 fold; in test [8] it was 0.8 fold.

B2: M103205H795-MY115/M103202L889-SK1 (antibody, human IgG1, kappa)
heavy: QVTLKESGPVLVKPTETLTLTCTVSGIDLSHDDISWVRQAPGKGLEWVGIISYAGSTYYASWAKGRLTISKDTSKNQVVLTMTNMDPVDTATYYCARGVPAYSHGGDLWGQGTLVTVSSASTKGPSVFPLAPSSKSTSGGTAALGCLVKDYFPEPVTVSWNSGALTSGVHTFPAVLQSSGLYSLSSVVTVPSSSLGTQTYICNVNHKPSNTKVDKKVEPKSCDKTHTCPPCPAPELLNGPSVFLFPPKPKDTLMISRTPEVTCVVVDVAEEDPEVKFNWYVDGVEVHNAKTKPREEQYNSTYRVVSVLTVLHQDWLNGKEYKCKVSNKALPAPIEKTISKAKGQPREPQVYTLPPSREEMTKNQVSLTCLVKGFYPSDIAVEWESNGQPENNYKTTPMVLDSDGSFFLYSKLTVDKSRWQQGNVFSCSVMHEALHNHYTQKSLSLSP
light: DIVMTQSPATLSLSPGERATLSCTSSQSVYHANWLSWFQQKPGQPPKLLIYWASTLAYGVPSRFSGSGSGTDFTLTISSLQPEDAATYYCAGGYGGGRYAFGQGTKVEIKRTVAAPSVFIFPPSDEQLKSGTASVVCLLNNFYPREAKVQWKVDNALQSGNSQESVTEQDSKDSTYSLSSTLTLSKADYEKHKVYACEVTHQGLSSPVTKSFNRGEC
notes: as for B1
Consider B2, for which the “KD fold (SG1 = 1)” value in test [1] turned out to be 1.9 fold; in test [2] it was 0.42 fold; in test [3] it was 2.2 fold; in test [4] it was 2.3 fold; in test [5], 0.22 fold; in test [6], 14.4 fold. Besides, the results for the “KD fold (SG1 = 1)” value in test [7] and in test [8] were 0.7 fold and 1.7 fold, respectively.

B3: M103205H795-MY141/M103202L889-SK1 (antibody, human IgG1, kappa)
heavy: QVTLKESGPVLVKPTETLTLTCTVSGIDLSHDDISWVRQAPGKGLEWVGIISYAGSTYYASWAKGRLTISKDTSKNQVVLTMTNMDPVDTATYYCARGVPAYSHGGDLWGQGTLVTVSSASTKGPSVFPLAPSSKSTSGGTAALGCLVKDYFPEPVTVSWNSGALTSGVHTFPAVLQSSGLYSLSSVVTVPSSSLGTQTYICNVNHKPSNTKVDKKVEPKSCDKTHTCPPCPAPELLNGPSVFLFPPKPKDTLMISRTPEVTCVVVDVAHEDPEVKFNWYVDGVEVHNAKTKPREEQYNSTYRVVSVLTVLHQDWLNGKEYKCKVSNKALPAPIEKTISKAKGQPREPQVYTLPPSREEMTKNQVSLTCLVKGFYPSDIAVEWESNGQPENNYKTTPMVLDSDGSFFLYSKLTVDKSRWQQGNVFSCSVMHEALHNHYTQKSLSLSP
light: DIVMTQSPATLSLSPGERATLSCTSSQSVYHANWLSWFQQKPGQPPKLLIYWASTLAYGVPSRFSGSGSGTDFTLTISSLQPEDAATYYCAGGYGGGRYAFGQGTKVEIKRTVAAPSVFIFPPSDEQLKSGTASVVCLLNNFYPREAKVQWKVDNALQSGNSQESVTEQDSKDSTYSLSSTLTLSKADYEKHKVYACEVTHQGLSSPVTKSFNRGEC
notes: as for B1
As for B3, the “KD fold (SG1 = 1)” value in test [1] was 1.8 fold; in test [2], 0.08 fold; in test [3] it was 0.9 fold; in test [4], 1 fold; in test [5], 0.07 fold; in test [6] it was 4.2 fold. In addition, the “KD fold (SG1 = 1)” value is 0.8 fold in test [7] and 0.7 fold in test [8].

B4: M103205H795-MY117/M103202L889-SK1 (antibody, human IgG1, kappa)
heavy: QVTLKESGPVLVKPTETLTLTCTVSGIDLSHDDISWVRQAPGKGLEWVGIISYAGSTYYASWAKGRLTISKDTSKNQVVLTMTNMDPVDTATYYCARGVPAYSHGGDLWGQGTLVTVSSASTKGPSVFPLAPSSKSTSGGTAALGCLVKDYFPEPVTVSWNSGALTSGVHTFPAVLQSSGLYSLSSVVTVPSSSLGTQTYICNVNHKPSNTKVDKKVEPKSCDKTHTCPPCPAPEWLNGPSVFLFPPKPKDTLMISRTPEVTCVVVDVAEEDPEVKFNWYVDGVEVHNAKTKPREEQYNSTYRVVSVLTVLHQDWLNGKEYKCKVSNKALPAPIEKTISKAKGQPREPQVYTLPPSREEMTKNQVSLTCLVKGFYPSDIAVEWESNGQPENNYKTTPMVLDSDGSFFLYSKLTVDKSRWQQGNVFSCSVMHEALHNHYTQKSLSLSP
light: DIVMTQSPATLSLSPGERATLSCTSSQSVYHANWLSWFQQKPGQPPKLLIYWASTLAYGVPSRFSGSGSGTDFTLTISSLQPEDAATYYCAGGYGGGRYAFGQGTKVEIKRTVAAPSVFIFPPSDEQLKSGTASVVCLLNNFYPREAKVQWKVDNALQSGNSQESVTEQDSKDSTYSLSSTLTLSKADYEKHKVYACEVTHQGLSSPVTKSFNRGEC
notes: as for B1
Turning to B4, the “KD fold (SG1 = 1)” value in test [1] was 1.6 fold; in test [2] it was 0.36 fold; in test [3], 1.7 fold; in test [4] it was 1.8 fold; in test [5] it was 0.1 fold; in test [6], 7.7 fold. Further, the “KD fold (SG1 = 1)” value was 0.8 fold in test [7] and 1.1 fold in test [8].
